Read-outs that look alike come from different tables or passages of the source.
How the values were obtained:
Caco-2 cells [1] = test system: Caco-2 cells
From the text: (§1) (See Example 1) Caco-2 cells may be cultured in the presence of a polypeptide construct comprising a polypeptide and a heterologous polypeptide and analyzed using a fluorescent assay to determine the percentage of uptake of the polypeptide construct into the cells.
(§2) Polypeptide conjugates may be studied in vitro using Caco-2 cells, to assess uptake and bioactivity of the therapeutic polypeptide.
(§3) To mimic the steric conditions in the intestine in vivo, Caco-2 cells may be cultured on permeable filter inserts (such as available from Becton Dickenson, Corning, Costar).
(§4) Various polypeptide constructs were labeled with Alexa Fluor™ Labeling Kits (ThermoFisher), to generate fluorescently labeled polypeptide constructs. Caco-2 cells were seeded in 12-well plates and incubated for 4 hours with the labeled polypeptides at concentrations ranging from 2-10 ug/mL. Following incubation, the plates were read on a Tecan Infinite M Nano+ and washed gently several times with PBS, then given fresh media, and the plates were re-read. The % of fluorescence remaining in the dish represents the relative amount of uptake of polypeptide construct compared to the amount originally applied to the cells.

[2] = test system: glucose-stimulated islets; assay: Inhibition of insulin secretion from glucose-stimulated islets (insulin ELISA); format: cell-based, human
Experimental: To determine if the polypeptide constructs comprising a polypeptide having an amino acid sequence identity according to SEQ ID NO:49 or 50 are biologically active following administration (PO), the ability of PCT-OCT to inhibit insulin secretion from glucose-stimulated islets was tested. Triplicates of 25 human islets (from a donor pancreas procured from an IIDP-approved islet center) were plated in a 96-well plate containing 100 μl of CMRL islet media (such as available from MediaTech). The islets were pre-incubated with either 100 μl (50%) serum (serum was collected from pancreas donor), 100 μl (50%) serum+PT-OCT, or 100 μl (50%) serum+PT-OCT that was exposed to thrombin for 45 minutes to cleave the polypeptide sequence from the therapeutic octapeptide of the polypeptide construct. Following a pre-incubation, the media and serum was removed and replaced with KREB's buffer solution containing 16.7 mM glucose, and incubated for an additional 30 minutes, at which point the KREB's buffer was collected. Insulin concentrations of the supernatant was measured using commercially available ELISA kits (such as available from Abcam). […] (See FIG. 19)

[3] = Blood levels of polypeptide fragment after PO administration of PT-OCT (FIG. 19); format: in vivo, Wistar rats; settings: PO 600 μg/animal; 0, 3 and 5 hours
Experimental: Blood samples were taken from the animals at 0, 3 and 5 hours post administration.

Caco-2 cells [4] = assay: Caco-2 uptake assay with fluorescently labeled polypeptide constructs; settings: for uptake (% of fluorescence remaining): Caco-2 uptake assay of Example 1
From the text: as §1, §2, §3, §4

blood glucose levels = assay: Blood glucose levels after PO administration of GLP-1 agonist constructs; format: in vivo, Sprague Dawley rats; settings: for blood glucose level: 600 ug PO
From the text: GLP-1 agonists, such as exenatide and liraglutide are desirable candidates for formulation as an oral dose therapeutic. To test if a polypeptide according to SEQ ID 1-40, when linked to a GLP-1 agonist as a polypeptide construct, facilitates the transport of GLP-1 agonists from the stomach to the blood, following oral administration. The amino acid sequences for exenatide and liraglutide were used to clone the sequences behind (downstream) of a polypeptide comprising an amino acid sequence according to SEQ ID NO 1, in order to generate, using an expression vector system, peptide constructs comprising an amino acid sequence according to SEQ ID NOs: 42,44 (referred to in the figures as “PT-GA1” and “PT-GA2”, respectively). Also, generated was a polypeptide construct according to SEQ ID NO:46 (“PT-GA2B”), comprised of the liraglutide sequence flanked by a polypeptide according to SEQ ID NO 1 on both the carboxy and amino terminal end of the liraglutide sequence. […] (See FIG. 11) To test efficacy and bioavailability in vivo, Sprague Dawley rats were administered (PO) 600 ug of the compositions comprising polypeptide constructs selected from PT-GA1, PT-GA2 or PT-GA2B, blood was drawn at 0, 4, and 6 hrs. post-treatment, and blood glucose levels were measured. Following treatment, the blood glucose levels of the PT-GA1 treated animals went from 107 mg/dl at 0 hrs to 118 mg/dL at 4 hrs and dropped to 87.5 mg/dl at 6 hrs. post treatment, while the PT-GA2 and PT-GA2B were 98 mg/dl, 126, 111 mg/dL; and 102 mg/dL, 105 mg/dL, 104 mg/dl respectively.

MADDAGAAGGPGGPGGPGMGNRGGFRGGFGSGIRGRGRGRGRGRGRGRGAFCFWKTCT [SEQ ID 49]
polypeptide constructs administered to Caco-2 cells taken up (Caco-2 cells [1]): approximately 38%

H-Met-Ala-Asp-Asp-Ala-Gly-Ala-Ala-Gly-Gly-Pro-Gly-Gly-Pro-Gly-Gly-Pro-Gly-Met-Gly-Asn-Arg-Gly-Gly-Phe-Arg-Gly-Gly-Phe-Gly-Ser-Gly-Ile-Arg-Gly-Arg-Gly-Arg-Gly-Arg-Gly-Arg-Gly-Arg-Gly-Arg-Gly-Arg-Gly-Nle (triazol-propionyl-D-Phe-Cys-Phe-D-Tru-Lys-Thr-Cys-Thr-ol)-OH [SEQ ID 50]
relative insulin secretion by glucose-stimulated islet cells, compared to control (in words) [2]: reduction | decrease of insulin secretion of glucose-stimulated islets ([2]; human islets, 50% serum pre-incubation, 16.7 mM glucose): 46% | levels of polypeptide fragment according to SEQ ID 53 in blood (in words) [3]: increasing levels | uptake by Caco-2 cells / targeted delivery (in words) (Caco-2 cells [1]): taken up by Caco-2 cells | polypeptide constructs administered to Caco-2 cells taken up (Caco-2 cells [4]; in one example, PT-OCT fusion and PT-OCT click side-by-side): approximately 38%

B1: MADDAGAAGGPGGPGGPGMGNRGGFRGGFGSGIRGRGRGRGRGRGRGRGAHAEGTFTSDVSSYLEGQAAKEFIAWLVRGRG (protein)
chain: MADDAGAAGGPGGPGGPGMGNRGGFRGGFGSGIRGRGRGRGRGRGRGRGAHAEGTFTSDVSSYLEGQAAKEFIAWLVRGRG
blood glucose level (blood glucose levels; 0 hrs): 98 mg/dL | blood glucose level (blood glucose levels; 4 hrs post-treatment): 126 mg/dL | blood glucose level (blood glucose levels; 6 hrs post-treatment): 111 mg/dL | blood glucose levels following oral administration (in words) (blood glucose levels; 600 μg in PBS): decrease in blood glucose levels | uptake (% of fluorescence remaining) (Caco-2 cells [4]): 31.4%

B2: MADDAGAAGGPGGPGGPGMGNRGGFRGGFGSGIRGRGRGRGRGRGRGRGAHAEGTFTSDVSSYLEGQAAKEFIAWLVRGRGMADDAGAAGGPGGPGGPGMGNRGGFRGGFGSGIRGRGRGRGRGRGRGRGA (protein)
chain: MADDAGAAGGPGGPGGPGMGNRGGFRGGFGSGIRGRGRGRGRGRGRGRGAHAEGTFTSDVSSYLEGQAAKEFIAWLVRGRGMADDAGAAGGPGGPGGPGMGNRGGFRGGFGSGIRGRGRGRGRGRGRGRGA
blood glucose level (blood glucose levels; 0 hrs): 102 mg/dL | blood glucose level (blood glucose levels; 4 hrs post-treatment): 105 mg/dL | blood glucose level (blood glucose levels; 6 hrs post-treatment): 104 mg/dL | uptake (% of fluorescence remaining) (Caco-2 cells [4]): 29.4%

Source: US20250388638A1, “COMPOSITIONS AND METHODS FOR ORAL DELIVERY” (IMAGINE PHARMA LLC, priority 2021, published 2025)
